Measurements: patent publication US20220106391A1

Key:
[1] = molecular target: canine beta-NGF (cNGF) (canine); experiment: SPR (Biacore), cNGF binding
[2] = molecular target: canine beta-NGF (cNGF) (canine); experiment: SPR (Biacore), cNGF binding; KD column of Table 7
rat NGF (rat) = rat NGF (rat) (UniProt P25427); experiment: cell-based or functional assay
NGF (species not stated) = experiment: cell-based or functional assay

Sequence of canine beta-NGF (cNGF) (canine) (Q29074 110-229 N171T limits assumed): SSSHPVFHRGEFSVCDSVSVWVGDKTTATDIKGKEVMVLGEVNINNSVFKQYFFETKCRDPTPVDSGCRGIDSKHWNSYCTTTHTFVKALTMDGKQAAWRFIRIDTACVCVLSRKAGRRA
Sequence of rat NGF (rat) (P25427 122-241 limits assumed): as the sequence (Q29074 110-229 N171T limits assumed) above, with S3T, R9M, M37T, D60A, T62N, D65E, M92T, G94D, G117A, A120G counted along it

- Kd [1]: 4.34 pM
- koff [1]: 1.54e-08 s⁻¹
- kon [1]: 3560 M⁻¹ s⁻¹
- Kd [2]: 4.34 pM
- IC50 nM (inhibition of neurite outgrowth, PC12 cells, rat NGF 10 ng/ml; Repeat 1) (rat NGF (rat)): 0.26 nM
- IC50 nM (inhibition of neurite outgrowth, PC12 cells, rat NGF 10 ng/ml; Repeat 2) (rat NGF (rat)): 0.24 nM
- IC50 µg/ml (inhibition of neurite outgrowth, PC12 cells, rat NGF 10 ng/ml; Repeat 1) (rat NGF (rat)): 0.039 µg/mL
- IC50 µg/ml (inhibition of neurite outgrowth, PC12 cells, rat NGF 10 ng/ml; Repeat 2) (rat NGF (rat)): 0.035 µg/mL
- IC50 nM (TF-1 proliferation inhibition, NGF 2.0 ng/ml) (NGF (species not stated)): 0.087 nM
- IC50 µg/ml (TF-1 proliferation inhibition, NGF 2.0 ng/ml) (NGF (species not stated)): 0.0131 µg/mL
B1: ZTS-182m6 (antibody, V domains shown)
VH: EVQLVESGGDLARPGGSLKLSCVVSGFTLTQYGINWVRQAPGKGLQWVTVIWATGATDYNSALKSRFTVSRDNAMNTVYLQMNSLRVEDTAVYYCARDGWWYATSWYFDVWGQGTLVTVSS
VL: DIVMTQTPLSLSVSPGEPASISCKASQDINHYLNWFRQKPDGTVKLLIYYTTRLQAGVPSRFSGSGSGTDFTLRISRVEADDAGVYYCQQGDHFPRTFGQGT
